The target in this assay is T1, Purified recombinant human GRK2 (G protein-coupled receptor kinase 2) (human, UniProt P25098 1-689).
T1 sequence (looked up): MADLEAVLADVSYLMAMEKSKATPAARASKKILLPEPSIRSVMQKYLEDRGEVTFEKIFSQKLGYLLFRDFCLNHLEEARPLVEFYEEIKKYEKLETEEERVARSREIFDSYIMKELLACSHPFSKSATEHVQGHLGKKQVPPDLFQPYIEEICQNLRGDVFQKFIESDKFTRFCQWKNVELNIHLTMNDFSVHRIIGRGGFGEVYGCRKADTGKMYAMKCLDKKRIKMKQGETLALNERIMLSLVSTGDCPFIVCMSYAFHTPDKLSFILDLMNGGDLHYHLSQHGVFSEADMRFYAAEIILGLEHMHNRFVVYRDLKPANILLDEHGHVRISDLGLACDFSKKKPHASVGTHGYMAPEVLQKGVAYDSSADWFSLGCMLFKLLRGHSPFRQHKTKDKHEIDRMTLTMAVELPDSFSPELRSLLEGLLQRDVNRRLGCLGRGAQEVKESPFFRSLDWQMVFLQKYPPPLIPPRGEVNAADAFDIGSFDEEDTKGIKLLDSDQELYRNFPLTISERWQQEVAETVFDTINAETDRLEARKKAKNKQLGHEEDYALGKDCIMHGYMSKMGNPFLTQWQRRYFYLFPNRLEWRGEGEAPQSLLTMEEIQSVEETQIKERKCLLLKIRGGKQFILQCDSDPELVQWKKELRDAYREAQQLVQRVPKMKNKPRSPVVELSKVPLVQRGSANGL
The assay is described as follows: pull-down.

B1: His-tagged human RKIP-1/PEBP-1 (Raf kinase inhibitor protein) (natural protein)
chain: MPVDLSKWSGPLSLQEVDEQPQHPLHVTYAGAAVDELGKVLTPTQVKNRPTSISWDGLDSGKLYTLVLTDPDAPSRKDPKYREWHHFLVVNMKGNDISSGTVLSDYVGSGPPKGTGLHRYVWLVYEQDRPLKCDEPILSNRSGDHRGKFKVASFRKKYELRAPVAGTCYQAEWDDYVPKLYEQLSGK
In the case of B1, the binding result is on record as “binds”.

Source of the values: PMC3121171 (Forum on immunopathological diseases and therapeutics, 2011).
